According to US20230192890A1:
Numbering of substitutions follows the chain as printed.

T1: Ala mutant SEQ ID NO: 40 (human)
T1 sequence (peptide): EENMDDQWMQDEMAIGY

T2: Ala mutant SEQ ID NO: 30 (human)
T2 sequence (peptide): EENADDQWMQDEMEIGY

T3: Ala mutant having 3-amino acid substitution, SEQ ID NO: 44 (human)
T3 sequence (peptide): AAAMDDQWMQDEMEIGY

T4: Ala mutant SEQ ID NO: 42 (human)
T4 sequence (peptide): EENMDDQWMQDEMEIAY

T5: Ala mutant having 3-amino acid substitution, SEQ ID NO: 49 (human)
T5 sequence (peptide): EENMDDQWMQDEMEIAA

T6: Ala mutant SEQ ID NO: 37 (human)
T6 sequence (peptide): EENMDDQWMQAEMEIGY

T7: Ala mutant SEQ ID NO: 28 (human)
T7 sequence (peptide): EANMDDQWMQDEMEIGY

T8: Ala mutant SEQ ID NO: 31 (human)
T8 sequence (peptide): EENMADQWMQDEMEIGY

T9: Ala mutant SEQ ID NO: 32 (human)
T9 sequence (peptide): EENMDAQWMQDEMEIGY

T10: Ala mutant SEQ ID NO: 38 (human)
T10 sequence (peptide): EENMDDQWMQDAMEIGY

T11: Ala mutant having 3-amino acid substitution, SEQ ID NO: 48 (human)
T11 sequence (peptide): EENMDDQWMQDEAAAGY

T12: Ala mutant having 3-amino acid substitution, SEQ ID NO: 47 (human)
T12 sequence (peptide): EENMDDQWMAAAMEIGY

T13: Ala mutant SEQ ID NO: 33 (human)
T13 sequence (peptide): EENMDDAWMQDEMEIGY

T14: Ala mutant SEQ ID NO: 41 (human)
T14 sequence (peptide): EENMDDQWMQDEMEAGY

T15: Ala mutant having 3-amino acid substitution, SEQ ID NO: 46 (human)
T15 sequence (peptide): EENMDDAAAQDEMEIGY

T16: TA0096 (peptide antigen corresponding to positions 340 to 356 of PAD4) (human)
T16 sequence (peptide): EENMDDQWMQDEMEIGY

T17: Ala mutant SEQ ID NO: 43 (human)
T17 sequence (peptide): EENMDDQWMQDEMEIGA

T18: Ala mutant SEQ ID NO: 29 (human)
T18 sequence (peptide): EEAMDDQWMQDEMEIGY

T19: Ala mutant SEQ ID NO: 27 (human)
T19 sequence (peptide): AENMDDQWMQDEMEIGY

T20: Ala mutant SEQ ID NO: 36 (human)
T20 sequence (peptide): EENMDDQWMADEMEIGY

T21: Ala mutant SEQ ID NO: 39 (human)
T21 sequence (peptide): EENMDDQWMQDEAEIGY

B1: E9 (antibody, IgG1, V domains shown)
VH: AVTLDESGGGLQTPGGTLSLVCKGSGFTFSSYGMGWMRQAPGKGLEYVAAIRNDGSWTGYGSAVKGRATISRDNGQSTVRLQLNNLRAEDTATYYCAKTSGSSGGSVDAWGHGTEVIVS
VL: ASTQPSSVSANLGGTVEITCSGGGRYYYGWYQQKSPGSAPVTVIYANDKRPSDIPSRFSGSKSGSTGTLTITGVQAEDEAVYFCGSAETSSYVFGAGTTLTVL
B2: G8 (antibody, IgG1, V domains shown)
VH: AVTLDESGGGLQTPGGALSLVCKASGFTFSTYAMGWMRQAPGKGLEYVAAIRNDGSWTGYGAAVKGRATILRDNGQSTVRLQLSNLRAEDTGTYYCAKYTGSSGGSIGAWGHGTEVIVS
VL: ASTQPSSVSANLGGTVEITCSGGNRNYYYGWYQQKSPGSAPVTLIYANDKRPSNIPSRFSGSKSGSTGTLTITGVQAEDEAVYFCGTADTGKYVFGAGTTLTVL
B3: G9 (antibody, IgG1, V domains shown)
VH: B2 VH
VL: B1 VL with S2V, S6A
B4: A11 (antibody, IgG1, V domains shown)
VH: B2 VH with T28D, T31S, A33G, R67H, L71S, S84N, Y99T, S103R, G108D
VL: B1 VL

biological target: full-length recombinant mouse PAD4 (mouse) (UniProt Q9Z183); assay: ELISA, mouse PAD4 on plate, antibody 0.0002441 ug/mL
Sequence (Q9Z183 whole entry): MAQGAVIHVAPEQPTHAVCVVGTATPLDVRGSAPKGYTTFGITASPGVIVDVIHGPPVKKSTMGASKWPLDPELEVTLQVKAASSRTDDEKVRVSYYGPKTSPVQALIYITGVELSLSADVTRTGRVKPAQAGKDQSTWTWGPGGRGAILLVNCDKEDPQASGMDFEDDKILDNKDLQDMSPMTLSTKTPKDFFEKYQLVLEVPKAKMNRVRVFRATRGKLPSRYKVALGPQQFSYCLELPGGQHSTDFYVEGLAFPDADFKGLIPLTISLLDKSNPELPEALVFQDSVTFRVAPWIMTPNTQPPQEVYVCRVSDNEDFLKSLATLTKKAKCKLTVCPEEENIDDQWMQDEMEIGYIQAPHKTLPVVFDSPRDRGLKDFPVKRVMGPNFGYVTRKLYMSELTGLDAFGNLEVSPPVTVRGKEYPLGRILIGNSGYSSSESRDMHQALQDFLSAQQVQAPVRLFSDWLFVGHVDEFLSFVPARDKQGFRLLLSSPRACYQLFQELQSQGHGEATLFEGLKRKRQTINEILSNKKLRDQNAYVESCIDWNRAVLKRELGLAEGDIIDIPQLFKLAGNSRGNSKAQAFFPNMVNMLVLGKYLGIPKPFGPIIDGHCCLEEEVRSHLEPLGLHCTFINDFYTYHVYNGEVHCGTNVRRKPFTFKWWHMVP

Point of comparison: B4, absorbance 490 nm/630 nm 0.152 OD. Against it:
- B1 — lower, 0.122 OD
- B2 — higher, 0.205 OD
- B3 — higher, 0.181 OD

biological target: T1, Ala mutant SEQ ID NO: 40 (human); assay: ELISA, peptide on plate (10 ug/mL)

Point of comparison: B1, absorbance 490 nm/630 nm 1.82 OD. Against it:
- B2 — higher, 1.89 OD
- B3 — higher, 1.88 OD
- B4 — higher, 1.85 OD

biological target: T2, Ala mutant SEQ ID NO: 30 (human); assay: ELISA, peptide on plate (10 ug/mL)

Point of comparison: B2, absorbance 490 nm/630 nm 1.93 OD. Against it:
- B1 — lower, 1.91 OD
- B3 — higher, 2.03 OD
- B4 — higher, 2.03 OD

biological target: T3, Ala mutant having 3-amino acid substitution, SEQ ID NO: 44 (human); assay: ELISA, peptide on plate (10 ug/mL)

Point of comparison: B1, absorbance 490 nm/630 nm 1.9 OD. Against it:
- B2 — the same, 1.9 OD
- B3 — higher, 1.92 OD
- B4 — higher, 1.98 OD

biological target: T4, Ala mutant SEQ ID NO: 42 (human); assay: ELISA, peptide on plate (10 ug/mL)

Point of comparison: B3, absorbance 490 nm/630 nm 1.85 OD. Against it:
- B1 — lower, 1.83 OD
- B2 — higher, 1.86 OD
- B4 — higher, 1.88 OD

biological target: T5, Ala mutant having 3-amino acid substitution, SEQ ID NO: 49 (human); assay: ELISA, peptide on plate (10 ug/mL)

Point of comparison: B4, absorbance 490 nm/630 nm 1.89 OD. Against it:
- B1 — lower, 1.85 OD
- B2 — lower, 1.86 OD
- B3 — higher, 1.92 OD

biological target: T6, Ala mutant SEQ ID NO: 37 (human); assay: ELISA, peptide on plate (10 ug/mL)

Point of comparison: B1, absorbance 490 nm/630 nm 1.2 OD. Against it:
- B2 — higher, 1.88 OD
- B3 — higher, 1.88 OD
- B4 — higher, 1.8 OD

biological target: T7, Ala mutant SEQ ID NO: 28 (human); assay: ELISA, peptide on plate (10 ug/mL)

Point of comparison: B3, absorbance 490 nm/630 nm 1.96 OD. Against it:
- B1 — higher, 2 OD
- B2 — lower, 1.94 OD
- B4 — higher, 2 OD

biological target: T8, Ala mutant SEQ ID NO: 31 (human); assay: ELISA, peptide on plate (10 ug/mL)

Point of comparison: B4, absorbance 490 nm/630 nm 1.67 OD. Against it:
- B1 — lower, 1.38 OD
- B2 — higher, 1.85 OD
- B3 — lower, 1.48 OD

biological target: T9, Ala mutant SEQ ID NO: 32 (human); assay: ELISA, peptide on plate (10 ug/mL)

Point of comparison: B4, absorbance 490 nm/630 nm 0.628 OD. Against it:
- B1 — lower, 0.177 OD

biological target: T10, Ala mutant SEQ ID NO: 38 (human); assay: ELISA, peptide on plate (10 ug/mL)

Point of comparison: B2, absorbance 490 nm/630 nm 1.91 OD. Against it:
- B1 — the same, 1.91 OD
- B3 — higher, 1.96 OD
- B4 — lower, 1.89 OD

biological target: T11, Ala mutant having 3-amino acid substitution, SEQ ID NO: 48 (human); assay: ELISA, peptide on plate (10 ug/mL)

Point of comparison: B3, absorbance 490 nm/630 nm 1.89 OD. Against it:
- B1 — lower, 1.81 OD
- B2 — lower, 1.88 OD
- B4 — lower, 1.87 OD

biological target: T12, Ala mutant having 3-amino acid substitution, SEQ ID NO: 47 (human); assay: ELISA, peptide on plate (10 ug/mL)

Point of comparison: B3, absorbance 490 nm/630 nm 1.85 OD. Against it:
- B1 — lower, 1.34 OD
- B2 — higher, 1.86 OD
- B4 — lower, 1.25 OD

biological target: T13, Ala mutant SEQ ID NO: 33 (human); assay: ELISA, peptide on plate (10 ug/mL)

Point of comparison: B4, absorbance 490 nm/630 nm 2.09 OD. Against it:
- B1 — lower, 1.93 OD
- B2 — lower, 1.98 OD
- B3 — lower, 1.98 OD

biological target: T14, Ala mutant SEQ ID NO: 41 (human); assay: ELISA, peptide on plate (10 ug/mL)

Point of comparison: B4, absorbance 490 nm/630 nm 1.85 OD. Against it:
- B1 — lower, 1.8 OD
- B2 — the same, 1.85 OD
- B3 — higher, 1.89 OD

biological target: T15, Ala mutant having 3-amino acid substitution, SEQ ID NO: 46 (human); assay: ELISA, peptide on plate (10 ug/mL)

Point of comparison: B3, absorbance 490 nm/630 nm 0.131 OD. Against it:
- B2 — higher, 0.178 OD

biological target: T16, TA0096 (peptide antigen corresponding to positions 340 to 356 of PAD4) (human); assay: ELISA, peptide on plate (10 ug/mL)

Point of comparison: B3, absorbance 490 nm/630 nm 1.85 OD. Against it:
- B1 — lower, 1.79 OD
- B2 — higher, 1.88 OD
- B4 — lower, 1.81 OD

biological target: T17, Ala mutant SEQ ID NO: 43 (human); assay: ELISA, peptide on plate (10 ug/mL)

Point of comparison: B1, absorbance 490 nm/630 nm 1.88 OD. Against it:
- B2 — higher, 1.92 OD
- B3 — the same, 1.88 OD
- B4 — higher, 1.92 OD

biological target: T18, Ala mutant SEQ ID NO: 29 (human); assay: ELISA, peptide on plate (10 ug/mL)

Point of comparison: B1, absorbance 490 nm/630 nm 1.92 OD. Against it:
- B2 — lower, 1.91 OD
- B3 — higher, 1.94 OD
- B4 — higher, 2.05 OD

biological target: T19, Ala mutant SEQ ID NO: 27 (human); assay: ELISA, peptide on plate (10 ug/mL)

Point of comparison: B2, absorbance 490 nm/630 nm 1.96 OD. Against it:
- B1 — lower, 1.89 OD
- B3 — lower, 1.93 OD
- B4 — lower, 1.95 OD

biological target: T20, Ala mutant SEQ ID NO: 36 (human); assay: ELISA, peptide on plate (10 ug/mL)

Point of comparison: B4, absorbance 490 nm/630 nm 1.91 OD. Against it:
- B1 — lower, 1.9 OD
- B2 — higher, 1.92 OD
- B3 — lower, 1.87 OD

biological target: T21, Ala mutant SEQ ID NO: 39 (human); assay: ELISA, peptide on plate (10 ug/mL)

Point of comparison: B3, absorbance 490 nm/630 nm 1.87 OD. Against it:
- B1 — lower, 1.77 OD
- B2 — higher, 1.88 OD
- B4 — higher, 1.89 OD

biological target: full-length recombinant mouse PAD4 (mouse) (UniProt Q9Z183); assay: ELISA, mouse PAD4 on plate, antibody 6.104E-05 ug/mL

Point of comparison: B1, absorbance 490 nm/630 nm 0.051 OD. Against it:
- B2 — higher, 0.122 OD
- B3 — higher, 0.079 OD
- B4 — lower, 0.045 OD

biological target: full-length recombinant mouse PAD4 (mouse) (UniProt Q9Z183); assay: ELISA, mouse PAD4 on plate, antibody 0.015625 ug/mL

Point of comparison: B2, absorbance 490 nm/630 nm 2.25 OD. Against it:
- B1 — lower, 1.86 OD
- B3 — lower, 2.21 OD
- B4 — lower, 2.02 OD

biological target: full-length recombinant mouse PAD4 (mouse) (UniProt Q9Z183); assay: ELISA, mouse PAD4 on plate, antibody 0.0625 ug/mL

Point of comparison: B3, absorbance 490 nm/630 nm 2.24 OD. Against it:
- B1 — lower, 2.19 OD
- B2 — lower, 2.22 OD
- B4 — the same, 2.24 OD

biological target: full-length recombinant mouse PAD4 (mouse) (UniProt Q9Z183); assay: ELISA, mouse PAD4 on plate, antibody 0.25 ug/mL

Point of comparison: B1, absorbance 490 nm/630 nm 2.23 OD. Against it:
- B2 — higher, 2.25 OD
- B3 — higher, 2.25 OD
- B4 — higher, 2.25 OD

biological target: full-length recombinant mouse PAD4 (mouse) (UniProt Q9Z183); assay: ELISA, mouse PAD4 on plate, antibody 0.0009766 ug/mL

Point of comparison: B4, absorbance 490 nm/630 nm 0.386 OD. Against it:
- B1 — higher, 0.416 OD
- B2 — higher, 0.555 OD
- B3 — higher, 0.542 OD

biological target: full-length recombinant mouse PAD4 (mouse) (UniProt Q9Z183); assay: ELISA, mouse PAD4 on plate, antibody 0.0039063 ug/mL

Point of comparison: B3, absorbance 490 nm/630 nm 1.39 OD. Against it:
- B1 — lower, 0.956 OD
- B2 — higher, 1.42 OD
- B4 — lower, 1.07 OD

biological target: full-length recombinant mouse PAD4 (mouse) (UniProt Q9Z183); assay: ELISA, mouse PAD4 on plate, antibody 1 ug/mL

Point of comparison: B1, absorbance 490 nm/630 nm 2.23 OD. Against it:
- B2 — higher, 2.26 OD
- B3 — higher, 2.3 OD
- B4 — higher, 2.24 OD
